Laboratory results reported in paper PMC5986199.

Target: α-NAC subunit of C. elegans NAC (C. elegans)
Assay: cross-linking; BS3 (d0/d4) at 20- or 50-fold molar excess, 20 uM NAC alone or + 20 uM substrate, 10 mM sodium phosphate pH 7.0, room temperature 1 h; SDS-PAGE, in-gel tryptic digest, LC-MS/MS

B1: β-NAC subunit of C. elegans NAC (natural protein)
chain: MDSKAIAERIKKLQAQQEHVRIGGKGTPRRKKKVIHKTAAADDKKLQSNLKKLSVTNIPGIEEVNMIKDDGTVIHFNNPKVQTSVPANTFSVTGSADNKQITEMLPGILNQLGPESLTHLKKLANNVTKLGPDGKGEDEDVPELVGDFDAASKNETKADEQ
stoichiometry N: 1
